{"source": "patent US12390517B2", "about": "“Compositions, methods and uses for eliciting an immune response” (Griffith University, priority 2018, dated 2025)", "key": {"[1]": {"target": "T1, recombinant MsrA/B (methionine sulfoxide reductase) from N. gonorrhoeae 1291, amino acids 30-522 of SEQ ID NO: 1 (recombinant with 6-His tag SEQ ID NO: 15); tag (Neisseria gonorrhoeae, UniProt P14930, E520K)", "T1 construct": "6-His tag (N); thrombin cleavage site (N); made in house; host or cells: E. coli BL21 Star (DE3)pLysS", "T1 sequence (P14930 with tags, fused parts or gaps E520K)": "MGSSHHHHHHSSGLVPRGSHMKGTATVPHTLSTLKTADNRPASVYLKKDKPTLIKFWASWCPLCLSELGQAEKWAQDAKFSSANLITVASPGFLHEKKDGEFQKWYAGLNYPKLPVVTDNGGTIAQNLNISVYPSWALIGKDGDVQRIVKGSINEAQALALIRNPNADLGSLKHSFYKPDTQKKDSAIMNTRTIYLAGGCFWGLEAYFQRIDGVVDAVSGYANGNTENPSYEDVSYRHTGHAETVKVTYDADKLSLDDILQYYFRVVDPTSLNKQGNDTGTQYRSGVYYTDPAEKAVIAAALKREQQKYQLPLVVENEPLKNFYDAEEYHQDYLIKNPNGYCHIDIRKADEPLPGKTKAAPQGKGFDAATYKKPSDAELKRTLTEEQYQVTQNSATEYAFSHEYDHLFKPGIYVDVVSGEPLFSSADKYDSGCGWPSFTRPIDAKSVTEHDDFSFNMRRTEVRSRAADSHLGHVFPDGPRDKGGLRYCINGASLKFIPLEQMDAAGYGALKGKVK", "assay": "Surface plasmon resonance (SPR) affinity assay of Met(O) binding to immobilized MsrA/B", "parameters": "species or system Neisseria gonorrhoeae 1291", "details": "read-out: KD (equilibrium dissociation constant), Biacore T200, MsrA/B immobilized on CM5 chip, Met(O) 0.16 to 100 nM, single cycle kinetics, absence of serum/antibody", "experimental": "The msr gene was amplified from N. gonorrhoeae 1291 using primers msrexp_NdeIF (5′-[…]-3′; SEQ ID NO:20) and msrexp_XhoIR (5′-[…]-3′; SEQ ID NO:21) and the resulting PCR product was cloned into pET15b to obtain a Msr expression construct pET15bmsr. The construct pET15bmsr was transformed into E. coli BL21 Star (DE3)pLysS host strain (Novagen) and MsrA/B was overexpressed and purified. Briefly, expression was induced by 0.1 mM IPTG at an optical density at 600 nm (OD600) of 0.4 for 24 hr at room temperature. Cell cultures were harvested and the cell pellet was re-suspended in buffer A. Cells were lysed by sonication, centrifuged and the supernatant was applied to a column packed with TALON™ metal affinity resins (Clontech laboratories, Inc). […] Fractions were collected and analyzed by 4-12% NuPAGE® Novex Bis-Tris Gels (Invitrogen) stained with Coomassie Blue, and by Western blot of anti-His polyclonal antisera. […]\nSPR assays were performed using a Biacore T200 for affinity analysis and a Pall Pioneer FE for competition assays. […] Data was analyzed using the Biacore T200 evaluation software package. […] Data was collected using the Pioneer Software package and analyzed using Qdat analysis software. The percentage blocking was calculated based on the relative RMax of the Met(O) injection with and without serum, and the serum with and without Met(O). […]"}, "[2]": {"test_system": "whole cell N. gonorrhoeae 1291", "assay": "Whole cell ELISA of mouse antisera against N. gonorrhoeae 1291 strains", "type": "binding", "details": "antisera of 5 mice immunized with Freund's adjuvant; for Whole cell ELISA titre to the mutant strain: 1291 msr::kan mutant; for Whole cell ELISA average titre to 1291 Δmsr_C: complemented strain; for Whole cell ELISA average titre to 1291: wild-type 1291", "experimental": "Groups of 10 female BALB/c mice (6 weeks old) were immunized subcutaneously with 5 μg of recombinant MsrA/B with either Alhydrogel® (aluminium hydroxide, InvivoGen) or Freund's (FCA/FIA, Sigma-Aldrich) adjuvant on days 0, 21, and 28. Terminal bleeds were collected on day 42. For Freund's adjuvant, Freund's complete adjuvant (FCA) was used on day 0 and Freund's incomplete adjuvant (FIA) was used in the boosts of day 21 and 28. Pre-bleed of each mouse was collected 4 days before immunization. This study was carried out in accordance with the recommendations of the Australian Code for the Care and Use of Animals for Scientific Purposes, the Griffith University Animal Ethics Committee (AEC). The protocol was approved by the Griffith University AEC.\nFor whole cell ELISA, bacteria were grown on BHI or GC plates for 16 hr. Cells were harvested and resuspended in PBS at an OD600 of 0.2. Microtitre plate wells were filled with 50 μl of the bacterial suspension and dried at room temperature overnight in the laminar flow cabinet. The bacteria in the dried wells were then heat-killed for 1 hr in 56° C. For recombinant protein ELISA, wells of plates were coated with 100 ng of purified recombinant MsrA/B protein in 100 μl of coating buffer (0.5M carbonate/bicarbonate buffer, pH 9.6) for 1 hr at room temperature. All ELISAs were performed with mouse pre-immune or MsrA/B immunized sera, and secondary antibody as specified in the results (polyclonal anti-mouse Ig HRP (Dako) or IgG1, IgG2a, IgG2b, IgG3 or IgM HRP (Thermofisher Scientific)). The substrate TMB (3,3′, 5,5;-tetramethylbenzidine) solution (Thermofisher Scientific) was used as per manufacture's instruction. Equal amount of 1 N hydrochloric acid was added to stop the reaction. Absorbance was read in a TECAN Model Infinite 200 Pro plate reader at 450 nm."}}, "data": [{"molecule": "C[S+]([O-])CC[C@H](N)C(=O)O", "note": "(stereo partly shown) [Met(O), methionine sulfoxide]", "values": [{"measurement": "Kd", "setting": "[1]", "value": "15.4 ± 3.7", "unit": "nM"}]}, {"molecule": "MsrB: recombinant MsrB domain, his-tag removed (SEQ ID NO:31), given to mice with Freund's adjuvant (protein, Recombinant MsrB) GSHMKAATYKKPSDAELKRTLTEEQYQVTQNSATEYAFSHEYDHLFKPGIYVDVVSGEPLFSSADKYDSGCGWPSFTRPIDAKSVTEHDDFSFNMRRTEVRSRAADSHLGHVFPDGPRDKGGLRYCINGASLKFIPLEQMDAAGYGALKGKVK", "values": [{"measurement": "Whole cell ELISA titre to the mutant strain", "setting": "[2]", "value": "1,000"}, {"measurement": "Whole cell ELISA average titre to 1291 Δmsr_C", "setting": "[2]", "value": "40,000"}, {"measurement": "Whole cell ELISA average titre to 1291", "setting": "[2]", "value": "16,000"}]}, {"molecule": "MsrA: recombinant MsrA domain, his-tag removed (SEQ ID NO:28), given to mice with Freund's adjuvant (protein, Recombinant MsrA) GSHMKHSFYKPDTQKKDSAIMNTRTIYLAGGCFWGLEAYFQRIDGVVDAVSGYANGNTENPSYEDVSYRHTGHAETVKVTYDADKLSLDDILQYYFRVVDPTSLNKQGNDTGTQYRSGVYYTDPAEKAVIAAALKREQQKYQLPLVVENEPLKNFYDAEEYHQDYLIKNPNGYCHIDIRKADEPLPG", "values": [{"measurement": "Whole cell ELISA titre to the mutant strain", "setting": "[2]", "value": "1,000"}, {"measurement": "Whole cell ELISA average titre to 1291 Δmsr_C", "setting": "[2]", "value": "20,000"}, {"measurement": "Whole cell ELISA average titre to 1291", "setting": "[2]", "value": "10,000"}]}]}
